Results taken from patent US5126322A, “Pancreatic secretory tryspin inhibitor and variants thereof produced by a recombinant host therefore and pharmaceutical use thereof” (Bayer Aktiengesellschaft, priority 1987, dated 1992).

How the values were obtained:
Format in all cases: biochemical
[1] = molecular target: T1, Pancreatic Elastase (porcine) (Sus scrofa, UniProt P00772); test: Enzyme inhibition assay, pancreatic elastase, release of p-nitroaniline from Ac-Ala-Ala-Pro-Ala-pNA; settings: 500 ng enzyme/assay
T1 construct: purchased Elastin Products Company, Inc
T1 sequence (P00772 27-266): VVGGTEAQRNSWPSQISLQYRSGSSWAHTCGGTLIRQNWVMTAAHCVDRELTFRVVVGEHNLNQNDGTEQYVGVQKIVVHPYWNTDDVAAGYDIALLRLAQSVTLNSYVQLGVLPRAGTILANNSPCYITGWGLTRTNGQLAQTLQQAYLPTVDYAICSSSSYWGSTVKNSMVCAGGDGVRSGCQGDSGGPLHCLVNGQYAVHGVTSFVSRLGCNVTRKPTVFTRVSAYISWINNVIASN
Experimental: (§1) Human leukocyte elastase (HLE) and porcine pancreas elastase (PPE) were obtained from Elastin Products Company, Inc. P.O. Box 147, Pacific, Miss. 63069/USA.
(§2) The substrates: MeOSuc-Ala-Ala-Pro-Val-pNA (HLE), Ac-Ala-Ala-Pro-Ala-pNA and Suc-Ala-Ala-Ala-pNA (PPE and Suc-Ala-Ala-Pro-Phe-pNA (CHT) were obtained from Bachem, Bubendorf/Switzerland.
(§3) Culture filtrates were treated as follows: 10 μl TWEEN 80 solution (0.5%) and 50 μl perchloric acid (70%) were added to 1 ml of culture filtrate. After 20 min, these samples were centrifuged, and the clear supernatants were neutralized by the addition of 225 μl saturated solution of tris base. Aliquots of these solutions were taken to determine inhibitory activities.
(§4) Generally, the samples were diluted with the appropriate buffer volume, and the enzyme was added. After the preincubation time, substrate was added (substrates are dissolved in DMSO in a concentration of 0.1M and diluted with buffer to give the concentration of the stock solution). The release of p-nitroaniline from the substrates was measured at 405 nm either continuously or after quenching the reaction by adding acetic acid. 100%- values were determined by running samples where inhibitors were omitted. Percentage inhibition was calculated using the formula: [formula] […]

α-Chymotrypsin (bovine) = molecular target: T2, α-Chymotrypsin (bovine) (Bos taurus, UniProt P00766); test: Enzyme inhibition assay, α-chymotrypsin, release of p-nitroaniline from Suc-Ala-Ala-Pro-Phe-pNA; settings: 50 ng enzyme/assay
T2 construct: purchased E. Merck, Darmstadt
Experimental: Bovine α-chymotrypsin (CHT) was obtained from E. Merck, Darmstadt.
as §2, §3, §4

[2] = molecular target: T3, Granulocytic Elastase (human) (Homo sapiens, UniProt P08246); test: Enzyme inhibition assay, leukocyte (granulocytic) elastase, release of p-nitroaniline from MeOSuc-Ala-Ala-Pro-Val-pNA; settings: 120 ng enzyme/assay
T3 construct: purchased Elastin Products Company, Inc
T3 sequence (P08246 30-267): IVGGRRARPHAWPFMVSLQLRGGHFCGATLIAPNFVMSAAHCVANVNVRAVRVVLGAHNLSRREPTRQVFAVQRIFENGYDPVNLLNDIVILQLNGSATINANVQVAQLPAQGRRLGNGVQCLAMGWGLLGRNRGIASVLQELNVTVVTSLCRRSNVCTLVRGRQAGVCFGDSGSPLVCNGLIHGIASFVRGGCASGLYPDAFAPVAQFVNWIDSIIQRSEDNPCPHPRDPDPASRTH
Experimental: as §1, §2, §3, §4

amount of inhibitor giving 50% inhibition, Pancreatic Elastase (porcine) [1] [ng] | amount of inhibitor giving 50% inhibition, α-Chymotrypsin (bovine) (α-Chymotrypsin (bovine)) [ng] | amount of inhibitor giving 50% inhibition, Granulocytic Elastase (human) [2] [ng] | Substance
68 | 6 | 15 | Asn^-13 -Ala^-12 -Glu^-11 -Thr^-10 -Ala^-9 -His^-8 -Lys^-7 -Ser^-6 -Asn^-5 -Glu^-4 -Val^-3 -Thr^-2 -Met^-1 -Leu^18 -Glu^19 -Arg^21 -Ala^32 -PSTI ({Asn-Ala-Glu-Thr-Ala-H2N}-KSNEVTMDSLGREAKCYNELNGCTLEYRPVCGTDGNTYANECVLCFENRKRQTSILIQKSGPC; ends and bridges not checked; UniProt P00995 24-79, looked up, variant K18L I19E D21R P32A) [PSTI-4A [Minifusion]]
1200 | 100 | 18 | Leu^18 -Ala^32 -PSTI (DSLGREAKCYNELNGCTLIYDPVCGTDGNTYANECVLCFENRKRQTSILIQKSGPC; UniProt P00995 24-79, looked up, variant K18L P32A) [PSTI-1A, PSTI variant from cyanogen bromide cleavage of the PSTI-1A minifusion protein]
75 | 7 | 17 | Leu^18 -Glu^19 -Arg^21 -Ala^32 -PSTI (DSLGREAKCYNELNGCTLEYRPVCGTDGNTYANECVLCFENRKRQTSILIQKSGPC; UniProt P00995 24-79, looked up, variant K18L I19E D21R P32A) [PSTI-4A, PSTI variant obtained from the minifusion protein by BrCN-cleavage]
73 | 8 | 16 | Met^-1 -Leu^18 -Glu^19 -Arg^21 -Ala^32 -PSTI (DSLGREAKCYNELNGCTLEYRPVCGTDGNTYANECVLCFENRKRQTSILIQKSGPC; N-terminal Met; UniProt P00995 24-79, looked up, variant K18L I19E D21R P32A) [Met-PSTI-4A]
 | 7 | > 5000 | Tyr^18 -Glu^19 -Arg^21 -PSTI (DSLGREAKCYNELNGCTYEYRPVCGTDGNTYPNECVLCFENRKRQTSILIQKSGPC; UniProt P00995 24-79, looked up, variant K18Y I19E D21R) [PSTI-3P]
70 | 100 | 15 | Val^18 -Glu^19 -Arg^21 -PSTI (DSLGREAKCYNELNGCTVEYRPVCGTDGNTYPNECVLCFENRKRQTSILIQKSGPC; UniProt P00995 24-79, looked up, variant K18V I19E D21R) [PSTI-5P]
